Values joined by “and” are separate entries in the source; they are usually repeats but may differ in a detail not shown here. Equal values may be shown once. Read-outs that look alike come from different tables or passages of the source. One block for each substance: values may come before it.
How the values were obtained:
[1] = biological target: A488-irisin-His (UniProt Q8NAU1); assay: fluorescence polarisation
[2] = biological target: A488-irisin-His (UniProt Q8NAU1); assay: fluorescence polarisation; remark: listed apart in the source
[3] = biological target: A488-irisin-His (UniProt Q8NAU1); assay: MST
[4] = biological target: A488-irisin-bac (UniProt Q8NAU1); assay: fluorescence polarisation
[5] = biological target: A488-FN10 (human); assay: fluorescence polarisation
[6] = biological target: reconstituted αVβ5/Hsp90α complex (human) (UniProt P06756); assay: fluorescence polarisation
[7] = biological target: unclasped and untagged recombinant human integrin αVβ5 ectodomain (human) (UniProt P06756); assay: fluorescence polarisation
[8] = biological target: clasped and tagged recombinant human integrin αVβ5 ectodomain (human) (UniProt P06756); assay: BLI

Substance: αVβ5 ectodomain mutant E304R (β5) (from UniProt P06756 32-991; P18084 24-717) (receptor)
reduction of affinity for irisin compared to WT [1]: 80%

Substance: reconstituted αVβ5/Hsp90α complex (from UniProt P06756 32-991; P18084 24-717; P07900 1-732)
Kd [2]: 31 nM | Kd [1]: 37 nM

Substance: unlabeled and untagged irisin (glycosylated, from mammalian cells) (from UniProt Q8NAU1 1-191) (ligand)
Kd [6]: 50 nM

Substance: irisin-His (wild-type, glycosylated recombinant irisin from mammalian cells) (from UniProt Q8NAU1 1-191) (ligand)
Kd [7]: 35 nM | Kd [6]: 52 nM | Kd [8]: 212 nM

Other lines, results leading:

stoichiometry N [3]: 1 | Kd [4]: 256 nM | Kd [5]: 146 nM | Kd [1]: 28 nM
Substance: unclasped and untagged recombinant human integrin αVβ5 ectodomain (from UniProt P06756 32-991; P18084 24-717) (receptor)

Kd [7]: 239 nM
Substance: FN10 (human fibronectin 10th FNIII domain, untagged) (domain or fragment)

Kd [7]: 294 nM and 299 nM
Substance: irisin-bac (non-glycosylated irisin produced in bacteria) (from UniProt Q8NAU1 1-260) (ligand)

reduction of affinity for irisin compared to WT [1]: > 90%
Substance: αVβ5 ectodomain mutant R218E (β5) (from UniProt P06756 32-991; P18084 24-717) (receptor)
